T1: human FcgRIIa type R extracellular domain (human, UniProt P12318 34-217)
T1 construct: extracellular domain; also called hFcgRIIaR
T1 sequence (looked up): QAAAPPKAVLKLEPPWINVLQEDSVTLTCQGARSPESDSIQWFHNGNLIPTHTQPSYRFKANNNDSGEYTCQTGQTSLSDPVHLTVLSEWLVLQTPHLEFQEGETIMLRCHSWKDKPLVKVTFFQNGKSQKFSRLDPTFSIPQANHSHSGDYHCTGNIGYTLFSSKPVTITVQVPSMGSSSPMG

T2: human FcgRIIa type H extracellular domain (human, UniProt P12318 34-217)
T2 construct: extracellular domain; also called hFcgRIIaH
T2 sequence (looked up): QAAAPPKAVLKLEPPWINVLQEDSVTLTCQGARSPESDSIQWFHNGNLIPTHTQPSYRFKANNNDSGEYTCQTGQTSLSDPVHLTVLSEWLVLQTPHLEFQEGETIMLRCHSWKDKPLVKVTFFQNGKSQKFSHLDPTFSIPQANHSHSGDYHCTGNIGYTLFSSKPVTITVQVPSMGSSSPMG

T3: human FcgRIIb extracellular domain (human, UniProt P31994 43-217)
T3 construct: extracellular domain; also called hFcgRIIb
T3 sequence (looked up): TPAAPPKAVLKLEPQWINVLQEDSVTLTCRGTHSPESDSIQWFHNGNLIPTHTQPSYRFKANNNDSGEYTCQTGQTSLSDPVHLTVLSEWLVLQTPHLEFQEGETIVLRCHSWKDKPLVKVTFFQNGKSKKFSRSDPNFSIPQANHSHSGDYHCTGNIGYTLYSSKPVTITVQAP


Legend:
human FcRn = human FcRn (human, UniProt P55899 24-290; P61769 21-119); test: SPR 25C pH 6.0, steady state
human FcRn, sequence (P55899 24-290 limits assumed, chain 1 of 2): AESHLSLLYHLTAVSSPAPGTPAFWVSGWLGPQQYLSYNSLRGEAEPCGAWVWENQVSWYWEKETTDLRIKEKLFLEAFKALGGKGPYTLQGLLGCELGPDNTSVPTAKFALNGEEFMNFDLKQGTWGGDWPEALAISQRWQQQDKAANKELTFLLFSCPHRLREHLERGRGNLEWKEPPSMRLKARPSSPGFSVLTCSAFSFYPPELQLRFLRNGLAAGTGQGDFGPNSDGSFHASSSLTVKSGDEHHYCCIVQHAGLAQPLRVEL
human FcRn, sequence (P61769 21-119 limits assumed, chain 2 of 2): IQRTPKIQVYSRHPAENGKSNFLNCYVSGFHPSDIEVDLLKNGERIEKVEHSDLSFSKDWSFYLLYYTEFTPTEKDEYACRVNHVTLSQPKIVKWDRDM
Protocol: Biacore T200 (GE Healthcare) was used to assess the binding activity to human FcRn. Measurement was performed at 25° C. using 50 mM phosphate, 150 mM NaCl, 0.05 w/v %-P20, pH 6.0 as buffer. Human FcRn proteins used for this determination were prepared by the procedure described in WO2010107110. About 400 RU of antibody was captured using a sensor chip immobilized with CaptureSelect™ Human Fab-lambda Kinetics Biotin Conjugate (Thermo Fisher Scientific) as a molecule for ligand capturing, followed by the binding of human FcRn diluted in measuring buffer. The activity of the respective antibodies to bind FcRn was assessed by calculating KD(mol/L) by the steady-state model using Biacore T200 Evaluation Software 2.0.

[1] = target: T1, human FcgRIIa type R extracellular …; test: SPR 25C
Protocol: (§1) Biacore T200 (GE Healthcare) was used to evaluate the binding activity to the respective human Fcγ receptor (hereafter referred to as FcγR). Measurement was performed at 25° C. using 50 mM phosphate, 150 mM NaCl, 0.05 w/v %-P20, pH 7.4 as buffer. About 1000 RU of antibody was captured using a sensor chip immobilized with CaptureSelect™ Human Fab-lambda Kinetics Biotin Conjugate (Thermo Fisher Scientific) as a molecule for ligand capturing. Human FcγR was diluted to 8 nM for FcγRIa and 1000 nM for other FcγR in the measurement buffer, and it was interacted to the captured antibody. The binding activity of each antibody to FcγR was assessed by calculating the binding amount of FcγR (RU) per unit amount of antibody using Biacore T200 Evaluation Software 2.0.

[2] = target: T2, human FcgRIIa type H extracellular …; test: SPR 25C
Protocol: as §1

[3] = target: T3, human FcgRIIb extracellular domain; test: SPR 25C
Protocol: as §1

[4] = target: T4, human FcgRIIIa F158 extracellular domain (human, UniProt P08637 17-208); test: SPR 25C
T4 construct: extracellular domain; also called hFcgRIIIaF
T4 sequence (P08637 17-208): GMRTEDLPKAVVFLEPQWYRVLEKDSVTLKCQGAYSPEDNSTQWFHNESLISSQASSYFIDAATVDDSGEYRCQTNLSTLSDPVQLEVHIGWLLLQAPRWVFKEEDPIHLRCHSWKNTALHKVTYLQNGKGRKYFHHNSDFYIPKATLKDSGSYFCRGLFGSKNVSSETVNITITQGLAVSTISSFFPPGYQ
Protocol: as §1

[5] = target: T5, human FcgRIIIa V158 extracellular domain (human, UniProt P08637 17-208); test: SPR 25C
T5 construct: extracellular domain; also called hFcgRIIIaV
T5 sequence (P08637 17-208 F176V): as the sequence (P08637 17-208) above, with F160V counted along it
Protocol: as §1

[6] = target: T6, human FcgRIa extracellular domain (human, UniProt P12314 16-292); test: SPR 25C
T6 construct: extracellular domain; also called hFcgRIa
T6 sequence (P12314 16-292): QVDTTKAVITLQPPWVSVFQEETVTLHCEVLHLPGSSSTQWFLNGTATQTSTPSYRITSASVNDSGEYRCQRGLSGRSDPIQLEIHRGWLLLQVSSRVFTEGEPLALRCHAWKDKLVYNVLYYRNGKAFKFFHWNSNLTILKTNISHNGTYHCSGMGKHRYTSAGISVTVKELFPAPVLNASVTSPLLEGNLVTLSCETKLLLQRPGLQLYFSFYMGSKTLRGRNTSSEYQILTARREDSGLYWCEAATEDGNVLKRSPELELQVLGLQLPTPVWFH
Protocol: as §1

| Binder | Kd (human FcRn) [µM] | binding per 1RU antibody [1] [RU] | relative binding (A375-G1T3/B167-Lamlib=1) [1] | binding per 1RU antibody [2] [RU] | relative binding (A375-G1T3/B167-Lamlib=1) [2] | binding per 1RU antibody [3] [RU] | relative binding (A375-G1T3/B167-Lamlib=1) [3] | binding per 1RU antibody [4] [RU] | relative binding (A375-G1T3/B167-Lamlib=1) [4] | binding per 1RU antibody [5] [RU] | relative binding (A375-G1T3/B167-Lamlib=1) [5] | binding per 1RU antibody [6] [RU] | relative binding (A375-G1T3/B167-Lamlib=1) [6] |
| --- | --- | --- | --- | --- | --- | --- | --- | --- | --- | --- | --- | --- | --- |
| A375-SCF025/B167-Lamlib (antibody, human IgG1, lambda) heavy: EVQLVESGGGLVKPGGSLRLSCAASGFTFSTFTMNWVRQAPGKGLEWVSSISSKSTYIEYADSFKVRFTISRDNAKNSLYLQMNSLRAEDTAVYYCARYGAKNFLNWVFDYWGQGTLVTVSSASTKGPSVFPLAPSSKSTSGGTAALGCLVKDYFPEPVTVSWNSGALTSGVHTFPAVLQSSGLYSLSSVVTVPSSSLGTQTYICNVNHKPSNTKVDKKVEPKSCDKTHTCPPCPAPELWNGPSVFLFPPKPKDTLMISRTPEVTCVVVDVSDEDPEVKFNWYVDGVEVHNAKTKPREELYNSTYRVVSVLTVLHQDWLNGKEYKCKVSNTALPKPIEKTISKAKGQRREPQVYTLPPSREEMTKNQVSLTCLVKGFYPSDIAVEWESNGQPENNYKTTPPVLDSDGSFFLYSKLTVKKSRWQQGNVFSCSVMHEALHNHYTQKSLSLSP light: QSALTQPPSASGSPGQTVTISCTGTRYDVGYYEYVSWYQQHPGKAPKLMIYETSKRLSGVPDRFSGSKSGNTASLTVSGLQAEDEADYYCSSYRYEHQVSFGGGTKLTVLGQPKAAPSVTLFPPSSEELQANKATLVCLISDFYPGAVTVAWKADSSPVKAGVETTTPSKQSNNKYAASSYLSLTPEQWKSHRSYSCQVTHEGSTVEKTVAPTECS | 1.1 | 0.0519 | 1.12 | 0.0514 | 0.91 | 0.0512 | 4.67 | 0.0012 | 0.06 | 0.0014 | 0.02 | 0.0022 | 0.03 |
| A375-SCF025a/B167-Lamlib (antibody, human IgG1, lambda) heavy: EVQLVESGGGLVKPGGSLRLSCAASGFTFSTFTMNWVRQAPGKGLEWVSSISSKSTYIEYADSFKVRFTISRDNAKNSLYLQMNSLRAEDTAVYYCARYGAKNFLNWVFDYWGQGTLVTVSSASTKGPSVFPLAPSSKSTSGGTAALGCLVKDYFPEPVTVSWNSGALTSGVHTFPAVLQSSGLYSLSSVVTVPSSSLGTQTYICNVNHKPSNTKVDKRVEPKSCDKTHTCPPCPAPELWNGPSVFLFPPKPKDTLMISRTPEVTCVVVDVSDEDPEVKFNWYVDGVEVHNAKTKPREELYNSTYRVVSVLTVLHQDWLNGKEYKCKVSNTALPKPIEKTISKAKGQRREPQVYTLPPSREEMTKNQVSLTCLVKGFYPSDIAVEWESNGQPENNYKTTPPVLDSDGSFFLYSKLTVKKSRWQQGNVFSCSVMHEALHNHYTQKSLSLSP light: QSALTQPPSASGSPGQTVTISCTGTRYDVGYYEYVSWYQQHPGKAPKLMIYETSKRLSGVPDRFSGSKSGNTASLTVSGLQAEDEADYYCSSYRYEHQVSFGGGTKLTVLGQPKAAPSVTLFPPSSEELQANKATLVCLISDFYPGAVTVAWKADSSPVKAGVETTTPSKQSNNKYAASSYLSLTPEQWKSHRSYSCQVTHEGSTVEKTVAPTECS | 1.13 | 0.0518 | 1.12 | 0.0514 | 0.91 | 0.0511 | 4.67 | 0.0009 | 0.04 | 0.0016 | 0.02 | 0.0021 | 0.03 |
| A375-SCF028/B167-Lamlib (antibody, human IgG1, lambda) heavy: EVQLVESGGGLVKPGGSLRLSCAASGFTFSTFTMNWVRQAPGKGLEWVSSISSKSTYIEYADSFKVRFTISRDNAKNSLYLQMNSLRAEDTAVYYCARYGAKNFLNWVFDYWGQGTLVTVSSASTKGPSVFPLAPSSKSTSGGTAALGCLVKDYFPEPVTVSWNSGALTSGVHTFPAVLQSSGLYSLSSVVTVPSSSLGTQTYICNVNHKPSNTKVDKKVEPKSCDKTHTCPPCPAPEYLGDDSVFLFPPKPKDVLMISRTPEVTCVVVDVSHEDPEVKFNWYVDGVEVHNAKTKPREEQYNSTYRVVSVLPVLHQDWLNGKEYKCKVSNKALPKPIEKTISKAKGQRREPQVYTLPPSREEMTKNQVSLTCLVKGFYPSDIAVEWESNGQPENNYKTTPPVLDSDGSFFLYSKLTVKKSRWQQGNVFSCSVMHEALHNHYTQKSLSLSP light: QSALTQPPSASGSPGQTVTISCTGTRYDVGYYEYVSWYQQHPGKAPKLMIYETSKRLSGVPDRFSGSKSGNTASLTVSGLQAEDEADYYCSSYRYEHQVSFGGGTKLTVLGQPKAAPSVTLFPPSSEELQANKATLVCLISDFYPGAVTVAWKADSSPVKAGVETTTPSKQSNNKYAASSYLSLTPEQWKSHRSYSCQVTHEGSTVEKTVAPTECS | 1.27 | 0.0299 | 0.64 | 0.0101 | 0.18 | 0.0995 | 9.08 | -0.0009 | -0.04 | -0.001 | -0.01 | 0.0027 | 0.03 |
| A375-SCF027/B167-Lamlib (antibody, human IgG1, lambda) heavy: EVQLVESGGGLVKPGGSLRLSCAASGFTFSTFTMNWVRQAPGKGLEWVSSISSKSTYIEYADSFKVRFTISRDNAKNSLYLQMNSLRAEDTAVYYCARYGAKNFLNWVFDYWGQGTLVTVSSASTKGPSVFPLAPSSKSTSGGTAALGCLVKDYFPEPVTVSWNSGALTSGVHTFPAVLQSSGLYSLSSVVTVPSSSLGTQTYICNVNHKPSNTKVDKKVEPKSCDKTHTCPPCPAPEYLGGDSVFLFPPKPKDVLMISRTPEVTCVVIDVSHEDPEVKFNWYVDGVEVHNAKTKPREEQYNSTYRVVSVLPVLHQDWLNGKEYKCKVSNKALPKPIEKTISKAKGQRREPQVYTLPPSREEMTKNQVSLTCLVKGFYPSDIAVEWESNGQPENNYKTTPPVLDSDGSFFLYSKLTVKKSRWQQGNVFSCSVMHEALHNHYTQKSLSLSP light: QSALTQPPSASGSPGQTVTISCTGTRYDVGYYEYVSWYQQHPGKAPKLMIYETSKRLSGVPDRFSGSKSGNTASLTVSGLQAEDEADYYCSSYRYEHQVSFGGGTKLTVLGQPKAAPSVTLFPPSSEELQANKATLVCLISDFYPGAVTVAWKADSSPVKAGVETTTPSKQSNNKYAASSYLSLTPEQWKSHRSYSCQVTHEGSTVEKTVAPTECS | 1.33 | 0.0058 | 0.12 | 0.0031 | 0.06 | 0.0766 | 6.99 | -0.0005 | -0.02 | -0.0006 | -0.01 | 0.0044 | 0.05 |
